Experimental data taken from patent US20240360228A1 (BIOLEGEND, published 2024).
Positions count from the first letter of the chain named.

B1: AB14 (antibody, V domains shown)
VH: EVQLVESGGGLVQPKGSLKLSCAASGFTFNTYAMNWVRQAPGKGLEWVARIRSKSNNYATYYVDSVKDRFTISRDDSQSMLYLQINNLKTEDTAMYYCVRGRELGPYSAMDYWGQGTSVTVSS
VL: DIVMTQAAPSVPVTPGESVSISCRSSKSLLHSNGNTYLYWFLQRPGQSPQLLIYRMSNLASGVPDRFSGSGSGTAFTLRISRVEAEDVGLYYCMQHLEYPFTFGGGTKLEIK
notes: Hybridoma monoclonal; also called antibody 14; clone 14
B2: AB10 (antibody, V domains shown)
VH: EVQLVETGGGLVQPKGSLKLSCAVSGFTFKTNAMNWVRQAPGKGLEWVARIRSKSNKYATYYADSVKDRFTISRDDSQSMLYLQMNNLKTEDTAMYYCVRGSEMGYYYAMDYWGQGTSVTVSS
VL: B1 VL with L90V
notes: Hybridoma monoclonal; also called antibody 10; clone 10

Tests used:
[1] = biological target: T1, human chemokine (C-C motif) receptor 8 (CCR8) (human, UniProt P51685 1-355); experiment: flow cytometry blocking, PBMC CCR8+ CD4+ cells; competitor PE-AB10 (its MFI is read)
T1 construct: On human peripheral blood lymphocytes / PBMC (native) or on human CCR8 GFP-transfected Ba/F3 cells; also called hCCR8; human CCR8
T1 sequence (P51685 whole entry): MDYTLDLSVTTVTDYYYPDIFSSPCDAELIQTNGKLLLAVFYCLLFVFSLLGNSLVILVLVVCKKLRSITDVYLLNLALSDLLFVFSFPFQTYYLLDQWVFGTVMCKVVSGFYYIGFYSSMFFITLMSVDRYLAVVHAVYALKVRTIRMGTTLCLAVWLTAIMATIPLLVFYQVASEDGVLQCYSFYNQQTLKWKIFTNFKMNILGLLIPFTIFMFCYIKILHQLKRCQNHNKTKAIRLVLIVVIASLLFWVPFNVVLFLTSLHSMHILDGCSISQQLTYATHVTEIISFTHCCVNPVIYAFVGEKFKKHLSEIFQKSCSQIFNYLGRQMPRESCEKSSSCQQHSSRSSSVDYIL
Method: (§1) For blocking studies, 100 μL of the cell suspension were incubated with 10 μg purified isotype control, AB1, AB2, AB3, AB4, AB5, AB8, AB9, AB10, AB11, AB12, AB13, AB14, AB15, and Commercial ABI antibodies, or isotype control, as blocking agents.
(§2) After incubation with the blocking agent, the cells were incubated with 0.25 μg of the indicated PE-conjugated antibody plus anti-human CD4 APC or anti-human CD3 for another 15 minutes in the dark and then washed 2 times with Cell Staining Buffer, and acquired in a FACSCanto II flow cytometer (BD Biosciences); the data was analyzed using FCS Express (De Novo Software); MFI correspond to the CCR8+ CD4+ lymphocytes or CCR8+ CD3+ lymphocytes.
(§3) Percentage original MFI was calculated by dividing the MFI of samples blocked with AB1, AB2, AB3, AB4, AB5, AB6, AB7, AB8, AB9, AB10, AB11, AB12, AB13, AB14, AB15, and Commercial ABI antibodies, by the MFI of samples blocked with the corresponding isotype control. This value was subtracted from 100 to get a blocking percentage. The formula is shown below: […]

[2] = biological target: T1, human chemokine (C-C motif) receptor 8 …; experiment: flow cytometry blocking, PBMC CCR8+ CD4+ cells; competitor PE-AB6 (its MFI is read)
Method: as §1, §2, §3

[3] = biological target: T1, human chemokine (C-C motif) receptor 8 …; experiment: flow cytometry blocking, PBMC CCR8+ CD4+ cells; competitor PE-AB5 (its MFI is read)
Method: as §1, §2, §3

[4] = biological target: T1, human chemokine (C-C motif) receptor 8 …; experiment: flow cytometry blocking, PBMC CCR8+ CD4+ cells; competitor PE-AB15 (its MFI is read)
Method: as §1, §2, §3

[5] = biological target: T1, human chemokine (C-C motif) receptor 8 …; experiment: flow cytometry blocking, PBMC CCR8+ CD4+ cells; competitor PE-AB12 (its MFI is read)
Method: as §1, §2, §3

[6] = biological target: T1, human chemokine (C-C motif) receptor 8 …; experiment: flow cytometry blocking, PBMC CCR8+ CD4+ cells; competitor PE-ABII (its MFI is read)
Method: as §1, §2, §3

[7] = biological target: T1, human chemokine (C-C motif) receptor 8 …; experiment: flow cytometry blocking, PBMC CCR8+ CD4+ cells; competitor PE-AB1 (its MFI is read)
Method: as §1, §2, §3

[8] = biological target: T1, human chemokine (C-C motif) receptor 8 …; experiment: flow cytometry blocking, PBMC CCR8+ CD4+ cells; competitor PE-AB11 (its MFI is read)
Method: as §1, §2, §3

[9] = biological target: T1, human chemokine (C-C motif) receptor 8 …; experiment: flow cytometry blocking, PBMC CCR8+ CD4+ cells; competitor PE-AB13 (its MFI is read)
Method: as §1, §2, §3

[10] = biological target: T1, human chemokine (C-C motif) receptor 8 …; experiment: cell-based or functional assay
[11] = biological target: T1, human chemokine (C-C motif) receptor 8 …; experiment: flow cytometry blocking, PBMC CCR8+ CD4+ cells; competitor PE-AB14 (its MFI is read)
Method: as §1, §2, §3

[12] = biological target: T1, human chemokine (C-C motif) receptor 8 …; experiment: flow cytometry blocking, PBMC CCR8+ CD4+ cells; competitor PE-AB3 (its MFI is read)
Method: as §1, §2, §3

[13] = biological target: T1, human chemokine (C-C motif) receptor 8 …; experiment: flow cytometry blocking, PBMC CCR8+ CD4+ cells; competitor PE-AB4 (its MFI is read)
Method: as §1, §2, §3

[14] = biological target: T1, human chemokine (C-C motif) receptor 8 …; experiment: flow cytometry blocking, PBMC CCR8+ CD4+ cells; competitor PE-AB2 (its MFI is read)
Method: as §1, §2, §3

Binder	% Blocking [1]	MFI [1]	% Blocking [2]	MFI [2]	% Blocking [3]	MFI [3]	% Blocking [4]	MFI [4]	% Blocking [5]	MFI [5]	% Blocking [6]	MFI [6]	% Blocking [7]	MFI [7]	% Blocking [8]	MFI [8]	% Blocking [9]	MFI [9]	% hCCR8-Ba/F3 - THP-1 complexes [10]	% Blocking [11]	also measured
B1	28.6%	720	-23.3%	966	-29.2%	969	-218%	2520	43.3%	553	9.26%	1000	-39.8%	916	44.4%	501	38.4%	577	0.97%	-237%	MFI [11]: 2980; % Blocking [12]: -23.3%; MFI [12]: 855; % Blocking [13]: -39.4%; MFI [13]: 951; % Blocking [14]: -32.6%; MFI [14]: 888
B2	-32.5%	1340	-26.3%	990	-32.8%	995	-0.06%	793	-21.6%	1190	15%	942	-61.8%	1060	39.5%	545	2.16%	916	0.47%	27.5%	MFI [11]: 642; % Blocking [12]: -38.4%; MFI [12]: 961; % Blocking [13]: -41.9%; MFI [13]: 969; % Blocking [14]: -45.2%; MFI [14]: 972
